Results: US20120178694A1 (University of Pennsylvania, published 2012)
Bridge positions count the residues as written; N and C are the ends. Square brackets hold non-standard residues; d marks the D form. Trp(1-Me) = Cn1cc(C[C@H](N)C(=O)O)c2ccccc21; NMeW = CN[C@@H](Cc1c[nH]c2ccccc12)C(=O)O; NMeH = CN[C@@H](Cc1c[nH]cn1)C(=O)O; NMeR = CN[C@@H](CCCNC(=N)N)C(=O)O; NMeQ = CN[C@@H](CCC(N)=O)C(=O)O; NMeD = CN[C@@H](CC(=O)O)C(=O)O; NMeC = CN[C@@H](CS)C(=O)O; Sar = CNCC(=O)O

Legend:
[1] = biological target: T1, C3 purified from fresh human plasma (human, UniProt P01024 23-1663); assay: cell-based or functional assay
T1 sequence (P01024 23-1663): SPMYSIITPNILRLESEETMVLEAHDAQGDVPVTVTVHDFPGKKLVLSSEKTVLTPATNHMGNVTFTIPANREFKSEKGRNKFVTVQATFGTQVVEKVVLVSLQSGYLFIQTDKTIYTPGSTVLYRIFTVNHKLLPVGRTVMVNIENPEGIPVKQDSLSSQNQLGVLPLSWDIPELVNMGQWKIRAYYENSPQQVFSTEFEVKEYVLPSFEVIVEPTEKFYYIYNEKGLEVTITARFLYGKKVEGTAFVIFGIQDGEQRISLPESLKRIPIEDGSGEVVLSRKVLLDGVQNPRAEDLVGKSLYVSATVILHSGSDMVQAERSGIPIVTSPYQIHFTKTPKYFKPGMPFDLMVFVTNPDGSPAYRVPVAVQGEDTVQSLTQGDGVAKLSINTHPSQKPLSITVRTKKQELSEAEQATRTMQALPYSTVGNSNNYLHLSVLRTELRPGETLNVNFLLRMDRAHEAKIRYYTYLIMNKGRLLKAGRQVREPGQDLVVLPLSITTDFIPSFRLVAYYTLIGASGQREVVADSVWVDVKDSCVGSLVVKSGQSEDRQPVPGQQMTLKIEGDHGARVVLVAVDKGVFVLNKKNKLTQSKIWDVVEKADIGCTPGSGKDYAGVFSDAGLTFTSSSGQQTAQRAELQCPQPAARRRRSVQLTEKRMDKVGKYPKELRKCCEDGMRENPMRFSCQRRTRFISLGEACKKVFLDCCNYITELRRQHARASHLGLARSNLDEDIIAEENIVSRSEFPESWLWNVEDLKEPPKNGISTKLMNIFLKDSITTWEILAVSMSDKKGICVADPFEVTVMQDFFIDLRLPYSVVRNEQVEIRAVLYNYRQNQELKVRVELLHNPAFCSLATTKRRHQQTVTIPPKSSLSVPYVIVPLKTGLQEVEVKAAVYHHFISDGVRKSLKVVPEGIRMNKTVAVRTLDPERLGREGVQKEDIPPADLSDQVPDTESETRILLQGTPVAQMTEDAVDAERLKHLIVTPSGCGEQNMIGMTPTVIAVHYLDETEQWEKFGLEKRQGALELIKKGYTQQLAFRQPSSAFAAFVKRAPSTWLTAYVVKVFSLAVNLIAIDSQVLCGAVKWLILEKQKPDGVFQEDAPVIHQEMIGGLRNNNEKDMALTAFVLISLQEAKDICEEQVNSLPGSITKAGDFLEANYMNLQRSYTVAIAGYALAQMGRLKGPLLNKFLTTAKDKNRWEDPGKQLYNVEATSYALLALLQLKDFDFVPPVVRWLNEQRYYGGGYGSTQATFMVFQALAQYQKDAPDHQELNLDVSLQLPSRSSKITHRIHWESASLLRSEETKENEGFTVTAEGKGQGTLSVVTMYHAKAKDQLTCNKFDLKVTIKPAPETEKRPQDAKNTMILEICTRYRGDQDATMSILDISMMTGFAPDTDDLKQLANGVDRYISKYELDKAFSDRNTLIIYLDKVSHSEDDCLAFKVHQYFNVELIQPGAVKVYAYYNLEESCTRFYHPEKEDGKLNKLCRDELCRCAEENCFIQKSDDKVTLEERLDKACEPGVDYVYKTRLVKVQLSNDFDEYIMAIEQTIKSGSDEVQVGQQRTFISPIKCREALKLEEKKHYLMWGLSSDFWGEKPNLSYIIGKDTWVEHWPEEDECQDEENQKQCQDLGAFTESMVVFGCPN

[2] = biological target: T1, C3 purified from fresh human plasma; assay: cell-based or functional assay; remark: listed apart in the source
[3] = biological target: T1, C3 purified from fresh human plasma; assay: ITC with C3; relative to peptide 14
Protocol: (§1) ITC analysis. All ITC experiments were performed with the Microcal VP-ITC calorimeter (Microcal Inc., Northampton, Mass.), using protein concentrations of 1.8-5 μM C3 in the cell and peptide concentrations of 40-100 μM of individual compstatin analogs in the syringe. All titrations were performed in PBS (10 mM phosphate buffer with 150 mM NaCl, pH 7.4) at 25° C. using multiple peptide injections of 2-7 μL each. The raw isotherms were corrected for the heats of dilution by subtracting the isotherms representing peptide injections into the buffer. The resulting isotherms were fitted to a single site of sites models using Origin 7.0 software, and the model that produced the lowest χ² value was deemed to be appropriate for the respective data set. The Gibbs free energy was calculated as ΔG=ΔH−TΔS. Each experiment was repeated at least twice.
(§2) Characterization of binding thermodynamics.

[4] = biological target: T1, C3 purified from fresh human plasma; assay: ITC; peptide titrated into C3, PBS, 25 C
Protocol: as §1, §2

biotinylated C3b [5] = biological target: biotinylated C3b (UniProt P01024); assay: SPR on immobilised C3b; ratio relative to peptide 14
[6] = biological target: T1, C3 purified from fresh human plasma; assay: cell-based or functional assay; remark: listed apart in the source
[7] = biological target: T1, C3 purified from fresh human plasma; assay: cell-based or functional assay; remark: listed apart in the source
biotinylated C3b [8] = biological target: biotinylated C3b (UniProt P01024); assay: SPR, Biacore 3000; biotinylated C3b on streptavidin chip, peptide injected; 1:1 fit

B1: Ac-I[(NMe)CVYQDWGAHRC]T-NH2 (peptide)
peptide: Ac-I[NMeC]VYQDWGAHRCT-NH2
modifications: disulfide 2-12
SMILES: CC[C@H](C)[C@H](NC(C)=O)C(=O)N(C)[C@H]1CSSC[C@@H](C(=O)N[C@H](C(N)=O)[C@@H](C)O)NC(=O)[C@H](CCCNC(=N)N)NC(=O)[C@H](Cc2c[nH]cn2)NC(=O)[C@H](C)NC(=O)CNC(=O)[C@H](Cc2c[nH]c3ccccc23)NC(=O)[C@H](CC(=O)O)NC(=O)[C@H](CCC(N)=O)NC(=O)[C@H](Cc2ccc(O)cc2)NC(=O)[C@H](C(C)C)NC1=O
IC50 (CP), inhibition of classical pathway complement activation, ELISA [1]: 7.5 µM
IC50-fold change relative to peptide 1 [1]: 0.3 fold

B2: Ac-I[CVYQD(NMe)WGAHRC]T-NH2 (peptide)
peptide: Ac-ICVYQD[NMeW]GAHRCT-NH2
modifications: disulfide 2-12
SMILES: CC[C@H](C)[C@H](NC(C)=O)C(=O)N[C@H]1CSSC[C@@H](C(=O)N[C@H](C(N)=O)[C@@H](C)O)NC(=O)[C@H](CCCNC(=N)N)NC(=O)[C@H](Cc2c[nH]cn2)NC(=O)[C@H](C)NC(=O)CNC(=O)[C@H](Cc2c[nH]c3ccccc23)N(C)C(=O)[C@H](CC(=O)O)NC(=O)[C@H](CCC(N)=O)NC(=O)[C@H](Cc2ccc(O)cc2)NC(=O)[C@H](C(C)C)NC1=O
IC50 (CP), inhibition of classical pathway complement activation, ELISA [1]: 25 µM
IC50-fold change relative to peptide 1 [1]: 0.1 fold

B3: Ac-I[CVY(NMe)QDWGAHRC]T-NH2 (peptide)
peptide: Ac-ICVY[NMeQ]DWGAHRCT-NH2
modifications: disulfide 2-12
SMILES: CC[C@H](C)[C@H](NC(C)=O)C(=O)N[C@H]1CSSC[C@@H](C(=O)N[C@H](C(N)=O)[C@@H](C)O)NC(=O)[C@H](CCCNC(=N)N)NC(=O)[C@H](Cc2c[nH]cn2)NC(=O)[C@H](C)NC(=O)CNC(=O)[C@H](Cc2c[nH]c3ccccc23)NC(=O)[C@H](CC(=O)O)NC(=O)[C@H](CCC(N)=O)N(C)C(=O)[C@H](Cc2ccc(O)cc2)NC(=O)[C@H](C(C)C)NC1=O
IC50 (CP), inhibition of classical pathway complement activation, ELISA [1]: 33 µM
IC50-fold change relative to peptide 1 [1]: 0.07 fold

B4: peptide 22 (peptide)
peptide: Ac-ICV[Trp(1-Me)]QDW[Sar]AHRCH-NH2
modifications: disulfide 2-12
SMILES: CC[C@H](C)[C@H](NC(C)=O)C(=O)N[C@H]1CSSC[C@@H](C(=O)N[C@@H](Cc2c[nH]cn2)C(N)=O)NC(=O)[C@H](CCCNC(=N)N)NC(=O)[C@H](Cc2c[nH]cn2)NC(=O)[C@H](C)NC(=O)CN(C)C(=O)[C@H](Cc2c[nH]c3ccccc23)NC(=O)[C@H](CC(=O)O)NC(=O)[C@H](CCC(N)=O)NC(=O)[C@H](Cc2cn(C)c3ccccc23)NC(=O)[C@H](C(C)C)NC1=O
IC50, inhibition of classical pathway complement activation, ELISA [2]: 0.16 µM

B5: peptide 16 (peptide)
peptide: Ac-ICV[Trp(1-Me)]QDWGAHRCI-NH2
modifications: disulfide 2-12
SMILES: CC[C@H](C)[C@H](NC(=O)[C@@H]1CSSC[C@H](NC(=O)[C@@H](NC(C)=O)[C@@H](C)CC)C(=O)N[C@@H](C(C)C)C(=O)N[C@@H](Cc2cn(C)c3ccccc23)C(=O)N[C@@H](CCC(N)=O)C(=O)N[C@@H](CC(=O)O)C(=O)N[C@@H](Cc2c[nH]c3ccccc23)C(=O)NCC(=O)N[C@@H](C)C(=O)N[C@@H](Cc2c[nH]cn2)C(=O)N[C@@H](CCCNC(=N)N)C(=O)N1)C(N)=O
notes: Peptide 14 scaffold with Gly^8, Ile^13; also called 16 (6)
-TΔΔS [3]: -1.3 kcal/mol
rKD ITC [3]: 1.2 fold
ΔΔG [3]: -0.2 kcal/mol
ΔΔH [3]: 1 kcal/mol
-TΔS [4]: 5.7 kcal/mol
ΔG [4]: -10.9 kcal/mol
ΔH [4]: -16.6 kcal/mol
rKD SPR (biotinylated C3b [5]): 1.1 fold
rka (biotinylated C3b [5]): 1 fold
rkd (biotinylated C3b [5]): 1 fold

B6: Ac-I[CVYQDWGAHR(NMe)C]T-NH2 (peptide)
peptide: Ac-ICVYQDWGAHR[NMeC]T-NH2
modifications: disulfide 2-12
SMILES: CC[C@H](C)[C@H](NC(C)=O)C(=O)N[C@H]1CSSC[C@@H](C(=O)N[C@H](C(N)=O)[C@@H](C)O)N(C)C(=O)[C@H](CCCNC(=N)N)NC(=O)[C@H](Cc2c[nH]cn2)NC(=O)[C@H](C)NC(=O)CNC(=O)[C@H](Cc2c[nH]c3ccccc23)NC(=O)[C@H](CC(=O)O)NC(=O)[C@H](CCC(N)=O)NC(=O)[C@H](Cc2ccc(O)cc2)NC(=O)[C@H](C(C)C)NC1=O
IC50 (CP), inhibition of classical pathway complement activation, ELISA [1]: 154 µM
IC50-fold change relative to peptide 1 [1]: 0.02 fold

B7: Ac-I[CVYQDWGAH(NMe)RC]T-NH2 (peptide)
peptide: Ac-ICVYQDWGAH[NMeR]CT-NH2
modifications: disulfide 2-12
SMILES: CC[C@H](C)[C@H](NC(C)=O)C(=O)N[C@H]1CSSC[C@@H](C(=O)N[C@H](C(N)=O)[C@@H](C)O)NC(=O)[C@H](CCCNC(=N)N)N(C)C(=O)[C@H](Cc2c[nH]cn2)NC(=O)[C@H](C)NC(=O)CNC(=O)[C@H](Cc2c[nH]c3ccccc23)NC(=O)[C@H](CC(=O)O)NC(=O)[C@H](CCC(N)=O)NC(=O)[C@H](Cc2ccc(O)cc2)NC(=O)[C@H](C(C)C)NC1=O
IC50 (CP), inhibition of classical pathway complement activation, ELISA [1]: 32 µM
IC50-fold change relative to peptide 1 [1]: 0.08 fold

B8: peptide 23 (peptide)
peptide: Ac-ICV[Trp(1-Me)]QDW[Sar]AHRCF-NH2
modifications: disulfide 2-12
SMILES: CC[C@H](C)[C@H](NC(C)=O)C(=O)N[C@H]1CSSC[C@@H](C(=O)N[C@@H](Cc2ccccc2)C(N)=O)NC(=O)[C@H](CCCNC(=N)N)NC(=O)[C@H](Cc2c[nH]cn2)NC(=O)[C@H](C)NC(=O)CN(C)C(=O)[C@H](Cc2c[nH]c3ccccc23)NC(=O)[C@H](CC(=O)O)NC(=O)[C@H](CCC(N)=O)NC(=O)[C@H](Cc2cn(C)c3ccccc23)NC(=O)[C@H](C(C)C)NC1=O
IC50, inhibition of classical pathway complement activation, ELISA [2]: 0.257 µM
rP, relative potency compared to peptide 14 [6]: 0.8 fold

B9: Ac-I[CVYQDW(NMe)GAHRC]T-NH2 (peptide)
peptide: Ac-ICVYQDW[Sar]AHRCT-NH2
modifications: disulfide 2-12
SMILES: CC[C@H](C)[C@H](NC(C)=O)C(=O)N[C@H]1CSSC[C@@H](C(=O)N[C@H](C(N)=O)[C@@H](C)O)NC(=O)[C@H](CCCNC(=N)N)NC(=O)[C@H](Cc2c[nH]cn2)NC(=O)[C@H](C)NC(=O)CN(C)C(=O)[C@H](Cc2c[nH]c3ccccc23)NC(=O)[C@H](CC(=O)O)NC(=O)[C@H](CCC(N)=O)NC(=O)[C@H](Cc2ccc(O)cc2)NC(=O)[C@H](C(C)C)NC1=O
IC50 (CP), inhibition of classical pathway complement activation, ELISA [1]: 1.43 µM
IC50-fold change relative to peptide 1 [1]: 1.7 fold

B10: Peptide 17-ABM (peptide)
peptide: ICVWQDWGAHRCIK
modifications: not fully specified; N-terminal acetyl; 1-methyl-Trp at 4; N-methyl-Gly (Sar) at 8; disulfide Cys2-Cys12 (cyclic); two mini-PEG-3 spacers between Ile13 and a C-terminal Lys-NH2; albumin-binding small molecule (ABM) on the Lys side chain
IC50 (nM, CP), inhibition of classical pathway complement activation, ELISA, human serum [7]: 137 nM
IC50 fold change relative to peptide 17 [7]: 0.67 fold
Kd (biotinylated C3b [8]): 0.0047 µM
koff (biotinylated C3b [8]): 0.0056 s⁻¹
kon (biotinylated C3b [8]): 1.2e+06 M⁻¹ s⁻¹

B11: Ac-I[CVYQ(NMe)DWGAHRC]T-NH2 (peptide)
peptide: Ac-ICVYQ[NMeD]WGAHRCT-NH2
modifications: disulfide 2-12
SMILES: CC[C@H](C)[C@H](NC(C)=O)C(=O)N[C@H]1CSSC[C@@H](C(=O)N[C@H](C(N)=O)[C@@H](C)O)NC(=O)[C@H](CCCNC(=N)N)NC(=O)[C@H](Cc2c[nH]cn2)NC(=O)[C@H](C)NC(=O)CNC(=O)[C@H](Cc2c[nH]c3ccccc23)NC(=O)[C@H](CC(=O)O)N(C)C(=O)[C@H](CCC(N)=O)NC(=O)[C@H](Cc2ccc(O)cc2)NC(=O)[C@H](C(C)C)NC1=O
IC50 (CP), inhibition of classical pathway complement activation, ELISA [1]: 44 µM
IC50-fold change relative to peptide 1 [1]: 0.06 fold

B12: Peptide 17-ABP (peptide)
peptide: ICVWQDWGAHRCIK
chain: RLIEDICLPRWGCLWEDD
modifications: propiolic acid on the N-terminus, joined by triazole to the azido-Lys of the peptide 17 chain; N-terminal acetyl; 1-methyl-Trp at 4; N-methyl-Gly (Sar) at 8; disulfide Cys2-Cys12 (cyclic); two mini-PEG-3 spacers between Ile13 and a C-terminal Lys-NH2; 2-azidoacetyl on the Lys side chain, joined by azide-alkyne cycloaddition (triazole) to the ABP
IC50 (nM, CP), inhibition of classical pathway complement activation, ELISA, human serum [7]: 242 nM
IC50 fold change relative to peptide 17 [7]: 0.38 fold
Kd (biotinylated C3b [8]): 0.032 µM
koff (biotinylated C3b [8]): 0.0036 s⁻¹
kon (biotinylated C3b [8]): 100000 M⁻¹ s⁻¹

B13: Ac-I[CVYQDWGA(NMe)HRC]T-NH2 (peptide)
peptide: Ac-ICVYQDWGA[NMeH]RCT-NH2
modifications: disulfide 2-12
SMILES: CC[C@H](C)[C@H](NC(C)=O)C(=O)N[C@H]1CSSC[C@@H](C(=O)N[C@H](C(N)=O)[C@@H](C)O)NC(=O)[C@H](CCCNC(=N)N)NC(=O)[C@H](Cc2c[nH]cn2)N(C)C(=O)[C@H](C)NC(=O)CNC(=O)[C@H](Cc2c[nH]c3ccccc23)NC(=O)[C@H](CC(=O)O)NC(=O)[C@H](CCC(N)=O)NC(=O)[C@H](Cc2ccc(O)cc2)NC(=O)[C@H](C(C)C)NC1=O
IC50 (CP), inhibition of classical pathway complement activation, ELISA [1]: 94 µM
IC50-fold change relative to peptide 1 [1]: 0.03 fold
